Data from patent US20170305994A1.

Target: T1, human DR3 (full length, on cells) (human) (UniProt Q93038)
T1 sequence: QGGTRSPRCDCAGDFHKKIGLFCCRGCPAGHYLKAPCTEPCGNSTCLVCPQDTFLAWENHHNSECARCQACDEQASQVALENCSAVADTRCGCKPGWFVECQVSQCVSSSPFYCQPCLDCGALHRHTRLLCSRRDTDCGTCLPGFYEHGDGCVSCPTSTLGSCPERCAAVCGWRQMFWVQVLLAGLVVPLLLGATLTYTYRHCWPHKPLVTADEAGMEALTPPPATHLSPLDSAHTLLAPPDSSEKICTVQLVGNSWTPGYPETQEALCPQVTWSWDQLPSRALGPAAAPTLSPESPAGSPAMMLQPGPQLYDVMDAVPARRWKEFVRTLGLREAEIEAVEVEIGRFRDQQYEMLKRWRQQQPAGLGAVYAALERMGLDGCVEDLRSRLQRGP
Experiment: cell-based or functional assay

B1: TL1A (R&D Systems) (ligand, UniProt O95150 72-251, looked up)
chain: LKGQEFAPSHQQVYAPLRADGDKPRAHLTVVRQTPTQHFKNQFPALHWEHELGLAFTKNRMNYTNKFLLIPESGDYFIYSQVTFRGMTSECSEIRQAGRPNKPDSITVVITKVTDSYPEPTQLLMGTKSVCEVGSNWFQPIYLGAMFSLQEGDKLMVNVSDISLVDYTKEDKTFFGAFLL
fold response, DR3 reporter, 40 ng/ml TL1A alone: 32.8 fold
